Experimental data taken from patent publication US20240343781A1.

Experiments:
SARS-CoV-2 Spike = assay: SPR
BM-4831 = assay: ELISA
BtKY72 = assay: ELISA
GX-Pangolin = assay: ELISA
RaTG13 = assay: ELISA
Rf1 = assay: ELISA
RmYN02 = assay: ELISA
Rs4081 = assay: ELISA
SARS-CoV = assay: ELISA
SHC014 = assay: ELISA
WIV1 = assay: ELISA
Yunnan2011 = assay: ELISA
[1] = biological target: SARS-CoV Spike (SARS-CoV) (UniProt P59594); assay: SPR

## ADG-2
SARS-CoV-2 Spike
  Kd: 0.983 pM
BM-4831
  EC50: 0.711 µg/mL
BtKY72
  EC50: 0.005 µg/mL
GX-Pangolin
  EC50: 0.089 µg/mL
RaTG13
  EC50: > 10 µg/mL
Rf1
  EC50: > 10 µg/mL
RmYN02
  EC50: > 10 µg/mL
Rs4081
  EC50: > 10 µg/mL
SARS-CoV
  EC50: 0.002 µg/mL
SHC014
  EC50: 0.003 µg/mL
WIV1
  EC50: 0.005 µg/mL
Yunnan2011
  EC50: > 10 µg/mL

## COVA1-16
[1]
  Kd: 19500 pM
SARS-CoV-2 Spike
  Kd: 1.29 pM
BM-4831
  EC50: > 10 µg/mL
BtKY72
  EC50: > 10 µg/mL
GX-Pangolin
  EC50: 0.043 µg/mL
RaTG13
  EC50: 0.614 µg/mL
Rf1
  EC50: 7.07 µg/mL
RmYN02
  EC50: > 10 µg/mL
Rs4081
  EC50: > 10 µg/mL
SARS-CoV
  EC50: > 10 µg/mL
SHC014
  EC50: 0.049 µg/mL
WIV1
  EC50: > 10 µg/mL
Yunnan2011
  EC50: > 10 µg/mL

## DH1047
SARS-CoV-2 Spike
  Kd: 1.06 pM
BM-4831
  EC50: 0.002 µg/mL
BtKY72
  EC50: 0.003 µg/mL
GX-Pangolin
  EC50: 0.006 µg/mL
RaTG13
  EC50: 0.003 µg/mL
Rf1
  EC50: > 10 µg/mL
RmYN02
  EC50: 0.01 µg/mL
Rs4081
  EC50: 0.013 µg/mL
SARS-CoV
  EC50: 0.009 µg/mL
SHC014
  EC50: 0.003 µg/mL
WIV1
  EC50: 0.003 µg/mL
Yunnan2011
  EC50: 0.011 µg/mL

## REGN10985
SARS-CoV-2 Spike
  Kd: 8.72 pM
BM-4831
  EC50: 0.72 µg/mL
BtKY72
  EC50: 0.001 µg/mL
GX-Pangolin
  EC50: 3.3 µg/mL
RaTG13
  EC50: > 10 µg/mL
Rf1
  EC50: > 10 µg/mL
RmYN02
  EC50: > 10 µg/mL
Rs4081
  EC50: > 10 µg/mL
SARS-CoV
  EC50: > 10 µg/mL
SHC014
  EC50: 0.003 µg/mL
WIV1
  EC50: 0.003 µg/mL
Yunnan2011
  EC50: > 10 µg/mL

## S2H97
SARS-CoV-2 Spike
  Kd: 4.53 pM
BM-4831
  EC50: 0.009 µg/mL
BtKY72
  EC50: 0.006 µg/mL
GX-Pangolin
  EC50: 0.026 µg/mL
RaTG13
  EC50: 0.008 µg/mL
Rf1
  EC50: 0.005 µg/mL
RmYN02
  EC50: 0.011 µg/mL
Rs4081
  EC50: 0.009 µg/mL
SARS-CoV
  EC50: 0.015 µg/mL
SHC014
  EC50: > 10 µg/mL
WIV1
  EC50: 0.54 µg/mL
Yunnan2011
  EC50: 0.124 µg/mL

## S2X259
SARS-CoV-2 Spike
  Kd: 0.895 pM
BM-4831
  EC50: 0.005 µg/mL
BtKY72
  EC50: 0.004 µg/mL
GX-Pangolin
  EC50: 0.035 µg/mL
RaTG13
  EC50: > 10 µg/mL
Rf1
  EC50: > 10 µg/mL
RmYN02
  EC50: > 10 µg/mL
Rs4081
  EC50: 2.29 µg/mL
SARS-CoV
  EC50: 0.016 µg/mL
SHC014
  EC50: 0.007 µg/mL
WIV1
  EC50: 0.005 µg/mL
Yunnan2011
  EC50: > 10 µg/mL

## S309
SARS-CoV-2 Spike
  Kd: 1.94 pM
BM-4831
  EC50: 0.286 µg/mL
BtKY72
  EC50: > 10 µg/mL
GX-Pangolin
  EC50: 0.052 µg/mL
RaTG13
  EC50: > 10 µg/mL
Rf1
  EC50: > 10 µg/mL
RmYN02
  EC50: > 10 µg/mL
Rs4081
  EC50: > 10 µg/mL
SARS-CoV
  EC50: 0.011 µg/mL
WIV1
  EC50: 0.023 µg/mL
Yunnan2011
  EC50: > 10 µg/mL
